Source: publication PMC2581641 (Molecular microbiology, 2008)

Key:
Experiment in all cases: two-hybrid
[1] = molecular target: T1, λCI-Rsd fusion protein with substitution G14E (E. coli, UniProt P0AFX4 1-158, G14E)
T1 sequence (looked up): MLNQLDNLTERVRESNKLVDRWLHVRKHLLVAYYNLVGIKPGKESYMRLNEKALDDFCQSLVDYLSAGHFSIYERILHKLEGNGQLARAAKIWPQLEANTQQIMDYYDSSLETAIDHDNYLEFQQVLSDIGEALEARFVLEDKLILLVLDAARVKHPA

[2] = molecular target: T2, λCI-Rsd fusion protein with substitution Y34F (E. coli, UniProt P0AFX4 1-158, Y34F)
T2 sequence (looked up): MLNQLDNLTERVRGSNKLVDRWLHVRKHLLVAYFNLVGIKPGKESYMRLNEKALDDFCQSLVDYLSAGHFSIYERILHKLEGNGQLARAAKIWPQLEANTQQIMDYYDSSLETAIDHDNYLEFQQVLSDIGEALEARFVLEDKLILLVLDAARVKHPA

[3] = molecular target: T3, λCI-Rsd fusion protein with substitutions G14E and Y34F (E. coli, UniProt P0AFX4 1-158, G14E | Y34F)
T3 sequence (looked up): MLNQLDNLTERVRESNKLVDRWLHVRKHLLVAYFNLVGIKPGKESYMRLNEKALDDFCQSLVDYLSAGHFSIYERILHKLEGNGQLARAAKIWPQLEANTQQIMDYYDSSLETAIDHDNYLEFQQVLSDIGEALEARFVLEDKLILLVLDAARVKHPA

λCI-AlgQ fusion protein = molecular target: T4, λCI-AlgQ fusion protein (P. aeruginosa, UniProt P15275 1-160)
T4 sequence (looked up): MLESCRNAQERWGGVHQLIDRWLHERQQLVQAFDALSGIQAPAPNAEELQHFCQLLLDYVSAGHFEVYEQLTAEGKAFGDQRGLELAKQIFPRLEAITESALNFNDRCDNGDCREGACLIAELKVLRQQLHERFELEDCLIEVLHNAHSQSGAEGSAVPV

B1: α-σ^70 region 2 fusion protein (domain or fragment, E. coli, UniProt P00579 94-448, looked up)
chain: TTDPVRMYMREMGTVELLTREGEIDIAKRIEDGINQVQCSVAEYPEAITYLLEQYDRVEAEEARLSDLITGFVDPNAEEDLAPTATHVGSELSQEDLDDDEDEDEEDGDDDSADDDNSIDPELAREKFAELRAQYVVTRDTIKAKGRSHATAQEEILKLSEVFKQFRLVPKQFDYLVNSMRVMMDRVRTQERLIMKLCVEQCKMPKKNFITLFTGNETSDTWFNAAIAMNKPWSEKLHDVSEEVHRALQKLQQIEEETGLTIEQVKDINRRMSIGEAKARRAKKEMVEANLRLVISIAKKYTNRGLQFLDLIQEGNIGLMKAVDKFEYRRGYKFSTYATWWIRQAITRSIADQAR
fold activation of lacZ transcription [1]: ~10 fold | fold activation of lacZ transcription [2]: ~9 fold | fold activation of lacZ transcription [3]: ~12 fold

B2: α-Pa σ^70 region 2 fusion protein (domain or fragment, P. aeruginosa, UniProt P26480 96-450, looked up)
chain: TTDPVRMYMREMGTVELLTREGEIEIAKRIEEGIREVMSAIAQFPGTVDSILADYNRIVAEGGRLSDVLSGYIDPDDGSLPAEEVEPVNLKDDSADSKEKDDEEEESDDSSDSDDEGDGGPDPEEARLRFTAVSEQLDKAKKALKKHGRGSKQATAELTGLAELFMPIKLVPKQFDALVARVRSALEGVRAQERAIMQLCVRDARMPRADFLRLFPNHETDEKWVDSVLKSKPKYAEAIERLRDDILRNQQKLAALESEVELTVAEIKEINRAMSIGEAKARRAKKEMVEANLRLVISIAKKYTNRGLQFLDLIQEGNIGLMKAVDKFEYRRGYKFSTYATWWIRQAITRSIADQ
fold activation of lacZ transcription (λCI-AlgQ fusion protein): ~14 fold
